Reference: publication PMC12095580, “Wnt signalosome assembly is governed by conformational flexibility of Axin and by the AP2 clathrin adaptor” (Nature Communications, 2025)
Non-standard residues stand in square brackets, D forms with d. No end group written: not given here. pS = N[C@@H](COP(=O)(O)O)C(=O)O; Lip = Lipoyl solubility tag; His6x = hexahistidine tag

Columns and labels:
[1] = target: Axin1 LIRα, 345-361 (UniProt O15169); assay: ITC; details: reference: unphosphorylated 43mer peptide; sites S317,S321,S325
[2] = target: LRP6-GFP (UniProt O75581); assay: coIP (GFP IP, α-Axin1 blot densitometry); details: co-expressed with wt GSK3β-HA
LRP6-GFP, sequence (O75581 20-1613): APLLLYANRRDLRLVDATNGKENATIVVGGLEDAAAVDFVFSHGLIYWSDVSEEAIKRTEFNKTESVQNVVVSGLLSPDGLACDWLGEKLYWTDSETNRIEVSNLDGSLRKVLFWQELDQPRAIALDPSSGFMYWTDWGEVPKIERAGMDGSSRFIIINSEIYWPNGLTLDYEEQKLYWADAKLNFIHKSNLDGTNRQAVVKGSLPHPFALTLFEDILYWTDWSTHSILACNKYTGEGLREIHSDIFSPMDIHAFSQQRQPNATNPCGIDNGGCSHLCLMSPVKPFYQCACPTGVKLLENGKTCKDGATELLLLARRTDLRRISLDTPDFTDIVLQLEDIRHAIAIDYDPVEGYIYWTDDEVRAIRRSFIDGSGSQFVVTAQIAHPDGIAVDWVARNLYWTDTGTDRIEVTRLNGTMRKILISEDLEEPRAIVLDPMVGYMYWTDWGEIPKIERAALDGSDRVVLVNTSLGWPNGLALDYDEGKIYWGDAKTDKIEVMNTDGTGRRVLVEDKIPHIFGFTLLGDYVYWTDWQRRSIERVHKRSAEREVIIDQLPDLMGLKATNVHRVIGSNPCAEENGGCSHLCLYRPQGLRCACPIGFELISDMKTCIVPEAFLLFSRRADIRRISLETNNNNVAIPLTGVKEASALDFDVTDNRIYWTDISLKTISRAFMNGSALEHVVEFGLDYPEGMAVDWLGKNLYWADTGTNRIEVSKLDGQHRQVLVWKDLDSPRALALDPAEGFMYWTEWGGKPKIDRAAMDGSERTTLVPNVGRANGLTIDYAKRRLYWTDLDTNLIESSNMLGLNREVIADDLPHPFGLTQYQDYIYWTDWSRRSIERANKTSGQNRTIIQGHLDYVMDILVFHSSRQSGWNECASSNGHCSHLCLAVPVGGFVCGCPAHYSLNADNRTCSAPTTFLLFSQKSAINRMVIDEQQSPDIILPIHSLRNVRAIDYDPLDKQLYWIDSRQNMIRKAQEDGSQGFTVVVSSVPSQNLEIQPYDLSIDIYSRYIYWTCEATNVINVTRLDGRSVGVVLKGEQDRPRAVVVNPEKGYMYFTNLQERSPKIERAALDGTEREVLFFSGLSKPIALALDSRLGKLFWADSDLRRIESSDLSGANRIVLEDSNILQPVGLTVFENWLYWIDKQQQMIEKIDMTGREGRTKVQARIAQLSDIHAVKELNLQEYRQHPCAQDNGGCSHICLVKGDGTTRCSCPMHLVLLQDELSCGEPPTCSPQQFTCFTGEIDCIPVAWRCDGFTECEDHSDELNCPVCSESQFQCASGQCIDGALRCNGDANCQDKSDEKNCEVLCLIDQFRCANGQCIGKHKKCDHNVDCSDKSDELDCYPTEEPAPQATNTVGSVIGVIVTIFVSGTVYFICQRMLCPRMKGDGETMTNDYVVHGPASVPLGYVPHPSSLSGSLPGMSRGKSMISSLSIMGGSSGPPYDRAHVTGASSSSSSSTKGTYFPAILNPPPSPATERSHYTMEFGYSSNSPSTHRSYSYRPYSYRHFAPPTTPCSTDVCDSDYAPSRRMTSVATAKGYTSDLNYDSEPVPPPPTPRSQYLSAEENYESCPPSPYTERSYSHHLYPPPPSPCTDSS

[3] = target: His6x-Lip-L2_(LRP6) (LRP6_(1539-1613)) (UniProt O75581); assay: ITC; binding of GSK3 or Axin to the CPPSPYT element of the distal LRP6 ctail; constructs and concentrations not told
His6x-Lip-L2_(LRP6) (LRP6_(1539-1613)), sequence (O75581 1539-1613): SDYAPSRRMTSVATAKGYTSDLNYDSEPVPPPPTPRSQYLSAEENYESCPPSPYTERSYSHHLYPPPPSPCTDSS

[4] = target: LRP6-GFP (UniProt O75581); assay: coIP (GFP IP, α-HA blot densitometry)
[5] = target: His6x-Lip-A5_(Axin) (Axin_(308-366)) (UniProt O15169); assay: ITC; 50 μM Axin fragment or GSK3β titrated with 500 μM Lip-L1_(LRP6); 25 °C, 25 mM sodium phosphate pH 6.7, 150 mM NaCl; one set of binding sites; apparent KD assuming 1:1
[6] = target: GSK3β-HA (UniProt P49841); assay: coIP (GFP IP, α-HA blot densitometry)
[7] = target: FLAG-Axin1 (UniProt O15169); assay: coIP (GFP IP, α-FLAG blot densitometry); details: HEK293T cells, co-expressed with wt GSK3β-HA
[8] = target: His6x-AP2μ (YxxΦ-binding domain of rat AP2μ) (rat); assay: ITC; 114 or 100 μM His6x-AP2μ titrated with 2 mM (SYRHFA) or 1.74 mM (…) His6x-Lip-YxxΦ peptide; 25 °C, 50 mM Tris-HCl pH 7.4, 300 mM NaCl
[9] = target: T1, phosphorylated Axin LIRup peptide (43PPP, Axin_(308-351) including pS317, pS321, pS325) (UniProt O15169 308-351, phosphoserine at 317, 321 and 325); assay: ITC; 50 μM synthetic 43mer or 43PPP peptide in the cell titrated with 500 μM wt or RKR mutant Axin Lip-LIRα; 25 °C, 25 mM sodium phosphate pH 6.7, 150 mM NaCl; details: both partners purified
T1 construct: Axin1 LIRup with 7 residues of LIRα; A308-Q351 counts 44 residues though the peptide is called 43PPP; source: synthetic peptide, bought: Biomatic
T1 peptide (looked up): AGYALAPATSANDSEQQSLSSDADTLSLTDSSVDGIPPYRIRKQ

[10] = target: T2, His6x-Lip-L1_(LRP6) (LRP6_(1463-1538) bearing YYYF > A) (UniProt O75581 1463-1538, YYYF > A (Y1517; position worked out from S1516 and S1521, p-0048) | YYYF > A …); assay: ITC
T2 sequence: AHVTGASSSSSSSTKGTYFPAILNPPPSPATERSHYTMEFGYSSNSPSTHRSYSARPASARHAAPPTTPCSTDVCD

[11] = target: T3, His6x-Lip-L1_(LRP6) (LRP6_(1463-1538) bearing YYYF > A) (UniProt O75581 1463-1538, YYYF > A (Y1517; position worked out from S1516 and S1521, p-0048) | YYYF > A …, Lipoyl solubility tag omitted. Mutated positions are not given; inferred because LIRup (308-344) should contain exactly five Asp and one Glu, in the order D-E-D4, and the text says all …); assay: ITC
T3 sequence: T2 sequence

[12] = target: T4, GSK3β-K85R (recombinant, full-length) (UniProt P49841 1-420, K85R); assay: NMR titration; BEST-TROSY peak height attenuation (bleaching): 80 μM 15N-labelled protein +/- 80 μM unlabelled partner; 25 mM sodium phosphate pH 6.7, 150 mM NaCl, 293 K; details: both partners purified
T4 construct: glycogen synthase kinase 3β, catalytically dead; also called catalytically-dead GSK3; source: E. coli BL21-CodonPlus(DE3)-RIL, purified (glutathione agarose, 3C cleavage, Superdex 200); not shown: GST, N-terminal, cleaved

[13] = target: T5, RKR mutant Axin Lip-LIRα (UniProt O15169 345-361, RKR > A (R347) | RKR > A (K350) | RKR > A (R354)); assay: ITC; phosphorylated 43PPP
T5 chain: PYAIRAQHRAEMQESVQ

[14] = target: T6, Axin Lip-LIRα (UniProt O15169 345-361); assay: ITC; phosphorylated 43PPP
T6 chain: PYRIRKQHRREMQESVQ

[15] = HEK293T cells, co-expressed with wt FLAG-Axin1

Axin1 LIRup peptide, 308-351 (from UniProt O15169) 43PPP peptide (pS317, pS321, pS325)
binding against the reference [1]: stronger

FLAG-Axin1 (from UniProt O15169) S493A; S497A
ratio to parent [2]: 1.57

FLAG-Axin1 (from UniProt O15169) S493D; S497D
ratio to parent [2]: 0.56

GSK3β (recombinant, full-length wt) (from UniProt P49841 1-420) (enzyme)
Kd [3]: > 500 µM

GSK3β-HA (from UniProt P49841) VE>GR
ratio to parent [4, 15]: 0.05 | ratio to parent ([4]; co-expressed with FLAG-Axin1 S1>A (the wt = 1.00 lane has wt Axin; wt GSK3β-HA with Axin S1>A reads 2.98)): 0.03

His6x-Lip-L1_(LRP6) (LRP6_(1463-1538) bearing YYYF > A) (from UniProt O75581 1463-1538) (domain or fragment)
Kd [5]: 1.37 µM

LRP6-GFP (from UniProt O75581) m10 (PPPSPxS>PPPAPxA, motifs A-E)
ratio to parent [6, 15]: 0.07 | ratio to parent ([6]; co-expressed with FLAG-Axin1 S1>A (the wt = 1.00 lane has wt Axin)): 0.01 | ratio to parent [7]: 0.11

B1: His6x-Lip-SYRHFA peptide (peptide)
chain: {His6x-Lip}-SYRHFA
Kd [8]: 16.2 µM

B2: RKR mutant Axin Lip-LIRα (domain or fragment, UniProt O15169 345-361, looked up)
chain: PYAIRAQHRAEMQESVQ
notes: Axin1 LIRα with R347, K350, R354 changed to alanine; also called Lip-LIRα RKR > A; not shown: Lipoyl solubility tag (Lip), N-terminal, kept
fold reduction of binding against wt Lip-LIRα [9]: ~10 x

B3: Lip-RKR > A (in Lip-A5_(Axin)) (domain or fragment)
chain: AGYALAPATSANDSEQQSLSSDADTLSLTDSSVDGIPPYAIRAQHRAEMQESVQVNGRV
Kd [10]: 5.15 µM

B4: Lip-DED4 > A (in Lip-A5_(Axin)) (domain or fragment)
chain: AGYALAPATSANASAQQSLSSAAATLSLTASSVAGIPPYRIRKQHRREMQESVQVNGRV
Kd [11]: 118 µM

B5: His6x-Lip-… peptide (peptide)
chain: {His6x-Lip}-SYRPYSYRHFA
Kd [8]: 8 µM

B6: His6x-Lip-A3_(Axin) (Axin_(308-426)) (domain or fragment, UniProt O15169 308-426, looked up)
chain: AGYALAPATSANDSEQQSLSSDADTLSLTDSSVDGIPPYRIRKQHRREMQESVQVNGRVPLPHIPRTYRVPKEVRVEPQKFAEELIHRLEAVQRTREAEEKLEERLKRVRMEEEGEDGD
notes: Axin1 fragment with LIR, PRTxR motif and GIR; source: E. coli BL21-CodonPlus(DE3)-RIL, purified (Ni-NTA, Superdex 75); 15N-labelled where observed by NMR; not shown: Lipoyl solubility tag (Lip), N-terminal, kept
Kd [3]: > 500 µM | binding result [12]: binds

B7: phosphorylated Axin LIRup peptide (43PPP, Axin_(308-351) including pS317, pS321, pS325) (peptide)
peptide: AGYALAPAT[pS]AND[pS]EQQ[pS]LSSDADTLSLTDSSVDGIPPYRIRKQ
Kd [13]: 448 µM | Kd [14]: 47.9 µM
